In the supplement of paper PMC12042874 one finds amyloid nucleation score data, which are given here for 133 substances.

Data set [1] can be described thus: amyloid nucleation score (Sup35N fusion, yeast selection) (log enrichment); library NNK2; higher = more nucleation; inactive = no reads after selection. In outline: (§1)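 The nucleation score, computed with DiMSum, is the log enrichment of output over input reads, centred on the mode score of non-aggregating sequences. Sequences with under 100 input reads were dropped. Reads were generated by Illumina sequencing of plasmid inserts from psi-negative yeast with Sup35N fused to peptides of 20 random codons, induced with 100 μM copper sulfate for 24 hours and grown 7 days at 30°C on medium lacking adenine and uracil.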

Data set [2] is described as follows: amyloid nucleation score (Sup35N fusion, yeast selection) (log enrichment); library NNK3; higher = more nucleation; inactive = no reads after selection. In outline:
as §1

± gives the uncertainty stated by the source.

The substance NGLSRLEVTNH showed an amyloid nucleation score in data set [1] of 0.052 ± 0.49.
Still for that read-out and setting: under RCLWYKACMRPF stands “inactive”.
Turning to KSLLWHLQLLAKT, in data set [1], the amyloid nucleation score came out at 0.174 ± 0.63.
On the same count and under the same terms, under LADTGA stands 0.108 ± 0.42; under GSKDFLV, -0.047 ± 1.1.
In turn, WVMAVVDHVLSWFYWRLCLF showed an amyloid nucleation score in data set [1] of 3.26 ± 0.058.
Same read-out and setting: the figure for GDSNG is -0.532 ± 0.29; for RFFYSCQASYPCSMVEMSVC it is -0.901 ± 0.44.
On the same count and under the same terms, under VSNFSRYHLSCYSMVRLLLD stands -0.532 ± 0.36.
The same measure, in the same setting: under PTVSLKDISGWIKPVRYLNG stands 0.26 ± 0.25; under WLKVS, -1.48 ± 0.55; under FFIIGDCGVLSCPAGGQLWS, 7.177 ± 0.037.
For the substance PNGFVFSCNRSPMAGMGIDE, the amyloid nucleation score in data set [1] is -2.14 ± 1.1.
Same read-out and setting: the figure for DSSVSAPMSSFDRWTTHCVL is 0.373 ± 0.43; for RRKANRVQFLSEYFLVCFVH it is “inactive”.
Still for that read-out and setting: under YACFDCIIIQAWKFSIGTGL stands 3.7 ± 0.051; under NCPSTDFPELMSMQSYCLLC, -1.71 ± 1.1.
Same read-out and setting: the figure for GSLNTLSIFDDE is -0.684 ± 0.64; for FFYQVWGNN it is 2.26 ± 0.11.
As for MMLNSINLKYLIWLCN, in data set [1], the amyloid nucleation score amounted to 2.73 ± 0.06.
Same read-out and setting: under FFQFTTDSHCND stands 0.654 ± 0.8; under VTRRLYSRFIGTKEISAVIC, 0.119 ± 0.43; under GARMHCGFCMGSWWYVFWVR, 1.32 ± 0.37.
For CILLPKVSCCCKGLICCDFV, the amyloid nucleation score in data set [1] stood at 0.186 ± 0.34.
NSNLLNTLFWVVT registered an amyloid nucleation score in data set [1] of 4.03 ± 0.13.
Same read-out and setting: the entry for KLPYVEIPVVLTSLSYLGV is “inactive”; for KVAFLLRVGAYFDSWWHRRV it is 0.166 ± 0.39.
The substance FRRVLCYKYYSFA gave an amyloid nucleation score in data set [1] of 2.42 ± 0.14.
The substance DLGHTYTSMYGFLTPSRDVD displayed an amyloid nucleation score in data set [1] of -0.052 ± 0.5.
Consider KNVLLKTLVHWLGRGMSAPG, for which, in data set [1], the amyloid nucleation score came to 0.165 ± 1.
In data set [1], TRDCLYFVLLILIIYLFGLR yielded an amyloid nucleation score of 3.12 ± 0.14.
Take KFRNCVRKDFLSMHHFSVVF: the amyloid nucleation score in data set [1] is -0.666 ± 0.45.
On the same count and under the same terms, the figure for TLTKKLHIGMLYPYHTLMLR is -0.596 ± 0.76; for DFLNWEDFCIMSECWNSTVQ it is “inactive”.
With NNSQEFSSYTWMNYLLIVKW, the amyloid nucleation score in data set [1] was -1.02 ± 1.
NITDDRMSSWIRFVILVSTV: the amyloid nucleation score in data set [1] is -0.074 ± 0.56.
Consider ITLLGKVLSGVVKPSYPLAA, for which the amyloid nucleation score result in data set [1] is “inactive”.
On to RTCTNYVMINETVVR, for which the amyloid nucleation score result in data set [1] was “inactive”.
Still for that read-out and setting: the figure for RFGSADVSITRVDFSS is 0.961 ± 0.15.
For VRVGCTWS, in data set [1], the amyloid nucleation score amounted to 0.618 ± 0.34.
For the substance HCVLRSQT, the amyloid nucleation score in data set [1] stood at 2.38 ± 0.12.
On to KTLWPGTWGGLITRVWWYTR, for which, in data set [1], the amyloid nucleation score is 0.471 ± 0.18.
Still for that read-out and setting: the figure for LHFTYCGSVMNVANDMVFVQ is 0.106 ± 1; for RNARDSQYDISGACGLFRDR it is -0.287 ± 0.27; for DVSVNRARFPREF it is 1.1 ± 0.17.
The same measure, in the same setting: under LYNRLACL stands 1.86 ± 0.084; under EEWSYVDSEPSIRFSRIQDV, -0.516 ± 0.42.
Consider MVEHLCNNHSRFLYSAWGIE, for which the amyloid nucleation score in data set [1] was -0.641 ± 0.56.
In turn, CVLMTALNLRKRSVGMPFCW gave an amyloid nucleation score in data set [1] of 4.67 ± 0.077.
In the case of TSFCTSVIGIVIHQDFAVDG, the amyloid nucleation score in data set [1] is 5.574 ± 0.045.
Still for that read-out and setting: the figure for PAERSCGQCFQEFSWY is 0.102 ± 1.1.
In the case of HFYRLAYTSISWVYRSLGAE, the amyloid nucleation score result in data set [2] was “inactive”.
Still for that read-out and setting: the entry for EMNSTFW is “inactive”; for DVGSR it is “inactive”.
As to QNCFHVY, the amyloid nucleation score result in data set [2] was “inactive”.
Regarding DFDILGSDHISWWYGRFDKT, the amyloid nucleation score entry in data set [2] was “inactive”.
SRCFWQSLEVTVILGSCINT had an amyloid nucleation score in data set [2] of 1.64 ± 0.11.
Still for that read-out and setting: under DSRFEWLLTLYYRFYLHNGR stands “inactive”; under LEYVCMRH, “inactive”; under ESPAASMVLHRGRLVVCSLS, “inactive”.
On the same count and under the same terms, the entry for GNFKCELVSALSDNIICPYM is “inactive”; for SSKMLTLMWMVGPPLSTDGS it is “inactive”; for GCYIVM it is “inactive”.
On the same count and under the same terms, the figure for RLSYQYFCQAMRMEGEFWSY is -0.16 ± 0.33; for WMMDEMLVFLTH it is “inactive”; for LYIGQGSMIFFYSVVGFSAC it is 2.36 ± 0.087.
For the substance SSAYHSHDSSRTKRNRSGRM, the amyloid nucleation score result in data set [2] is “inactive”.
For the substance LNKLEVNDVSIGYVNCTLFK, the amyloid nucleation score result in data set [2] was “inactive”.
As for YNDGVCIILFNLPFVCRRST, the amyloid nucleation score in data set [2] came to 2.85 ± 0.05.
On the same count and under the same terms, under RSHGVLNLILCSPFLSDTGQ stands 2.78 ± 0.074; under SFSKLVFR, “inactive”; under YIASNAWETWRRDRSYRKRL, “inactive”.
Still for that read-out and setting: the entry for SIGVFRYFVLVLHYWYGISS is “inactive”; for TSGWEFRRFPNFQLLILSCF it is “inactive”.
On the same count and under the same terms, under SRALDGYKVPRFWIVRARGR stands “inactive”; under TYGSVNCVSLMCSVVVLFAM, “inactive”.
For LCRGYDRLKRPHSVVSGSIC, in data set [2], the amyloid nucleation score entry is “inactive”.
Take HALFGYISRVDNLYSSMVSH: in data set [2], the amyloid nucleation score entry is “inactive”.
On the same count and under the same terms, under MYTQCLVYSR stands “inactive”; under FWLSHQNDDVYTFMPLSCSS, “inactive”; under NRISMFLNRT, “inactive”.
For the substance IYSMYQCLFVEHFS, in data set [2], the amyloid nucleation score entry is “inactive”.
For FHSQYEGAEERSPRNVLMAR, the amyloid nucleation score result in data set [2] was “inactive”.
Take TNDFVNV: the amyloid nucleation score result in data set [2] was “inactive”.
In data set [2], AGLLDMARSVDCSGLGYGFF yielded an amyloid nucleation score of -0.82 ± 1.
Same read-out and setting: under LMIEGLSDIHVLMAVSPERG stands “inactive”; under TRNMIMRRKSTLRHLVTEAD, “inactive”.
Turning to VSMCNLNGVLPLNLFRLGLC, the amyloid nucleation score result in data set [2] is “inactive”.
Consider DLCGNPVPVQSSGLGYDGLV, for which the amyloid nucleation score entry in data set [2] was “inactive”.
For SYVAVPR, in data set [2], the amyloid nucleation score entry is “inactive”.
Regarding IKSGFW, the amyloid nucleation score entry in data set [2] was “inactive”.
The same measure, in the same setting: under KARANFVYAKFHFTRAP stands “inactive”; under ALYNCSCQDNGVQFNK, “inactive”; under DTMSKPSLLLGIPCVTHDVA, “inactive”.
MLNWPIDRDSWRPGFDMWLG came in with an amyloid nucleation score in data set [2] of -0.426 ± 0.6.
The same measure, in the same setting: the figure for AILLWNCLHSSVSLLKKAYS is -0.518 ± 1.4; for LVVTYWEMRLVPADAK it is “inactive”; for PLLIAVQWTMTAGCRSHKLL it is -0.781 ± 2.5.
Same read-out and setting: the entry for IATTDIYAAYFYSLMQAIYR is “inactive”.
On to LGSCCLLYYYAKTVMNMFSK, for which the amyloid nucleation score result in data set [2] was “inactive”.
The same measure, in the same setting: the entry for DVMKVMDRINKRGDNSNYVC is “inactive”; for TRNIMRSIMVPSTWRVFITV it is “inactive”.
As for SQGGFRNMWR, in data set [2], the amyloid nucleation score result is “inactive”.
As for MTSQSMKVISWCDRHRQMNS, the amyloid nucleation score in data set [2] worked out at 1.03 ± 0.13.
The same measure, in the same setting: under TWSACPTLCLD stands -0.392 ± 0.98; under ILCFGLLN, “inactive”; under NVVSWVNHACGWRDRSATMS, “inactive”.
The same measure, in the same setting: under VCLCNIRDMAG stands “inactive”; under YSPAK, “inactive”.
As to RVYFKTGFPMVLLSKKRGSE, in data set [2], the amyloid nucleation score stood at 0.952 ± 0.19.
The same measure, in the same setting: under YSSECALWNCRACVLYIHYR stands 1.27 ± 0.16; under EKKCIQRRFFYSVFNLMLSF, -0.714 ± 1.
With RTFPLTLRSSHSPFKPLMFL, the amyloid nucleation score entry in data set [2] is “inactive”.
The same measure, in the same setting: the entry for SYSWYFYSAGTSWI is “inactive”.
In data set [2], LDARN displayed an amyloid nucleation score of -0.213 ± 1.5.
Take LRRGMMARFIVNVVRVN: in data set [2], the amyloid nucleation score result is “inactive”.
Still for that read-out and setting: under ALEFRSTENTSSSG stands -0.223 ± 0.73; under FRVKFIMCRHLSPNV, 0.682 ± 0.2.
Still for that read-out and setting: the entry for IRMIDWILLDAVT is “inactive”; for VDRVYTLREFEVHGGTWFGV it is “inactive”.
Same read-out and setting: the entry for SLMCLLVRLLIKN is “inactive”; for EDVYFSYGDVWMVIGALTTV it is “inactive”; for VRMRDFKENARRMVP it is “inactive”.
As to RGFFMVWLMNCLMRFRISDF, in data set [2], the amyloid nucleation score result was “inactive”.
With SYPERMLWSSVMADFKMRRP, the amyloid nucleation score result in data set [2] was “inactive”.
In the case of YNRADSIRFQ, the amyloid nucleation score result in data set [2] was “inactive”.
The substance SFLSKGRSRSSFQWYQGHRA had an amyloid nucleation score in data set [2] of -0.302 ± 1.1.
The same measure, in the same setting: the entry for FALMFLSWYNRKSVSRPCTE is “inactive”; for MMLDTWVTYPMREKLDAYRV it is “inactive”.
Still for that read-out and setting: the figure for RSAVISTLRYSW is -0.289 ± 0.41.
Still for that read-out and setting: the entry for DRTTSVGPYSAVLGFMCDWW is “inactive”; for FLGDSTNGRRFFSEFRSEWG it is 0.964 ± 0.17; for SYVVSQPFSHRYWESLTMAL it is “inactive”.
